Source: the DeepSol protein solubility set

Experiment: soluble on expression in E. coli; label from the status in PepcDB or PDB records

Row | Sequence | soluble on expression in E. coli
1 | MVRKMNKLAKRLASTSKSRQPEPESDSDGSEFDFDNAIEEKPMEAMDIEEVESDGDDDERELQAAFAAGLLKDGLNIQVAKKRPIINKSAEMKEKLAEITKDLPWVETLEVVTPHSEMDKKVENDDFQRELNFYKQAEKAVQIAYPRLLNLGIKVLRPTDYYAEMAKSDTHMQKVRKRLLGIQEMKERQEAFRRIREEKKFAVKVQKEVLAAKNTEKKNLAEAVKKHKKGMKQQLEDMLNNVKRHGLDQDDDAPTGAFGDRLGGRGGAGRGGAGRGGSMRNAGELKRKLKSDKFGYGGKKKGMKRNNKESFNDLFGAPRGGFGGRGRGGGRGGRGGRGRR | not soluble
2 | MPKSKSQKNKLRPRDSKGRFTPLAKAKRTVVSRSRSRSRSASRGARQSRSVGRPMSRRNSVRSISTHTAKSPSLVLVISGSPSPRRRRPSTRRSSSRRSVVRSVSRGSKGRRSSSRGSVYGRTGRSRSSKRSRSRSRPRTRSGSRSSSRSRSGSRRSSRRRSRHRSSSKARGRRASTAKKTPAKRRSRSRSQQKVKRSMSRKG | soluble
3 | MGEHKNCKCNRWVISLQAAFDRDDFEKLFRKAVQSITEEEFQRIPEFRHREDALACLFGRLLLRHSAQKFSGEPWNTIRFERTERGKPFLAVPADTTFGLNVSHQGDYVAFASSCSSKVGVDVMRLDNERNNKTADEYINSMAKSASPEELRMMRSQPTEAMKMTMFYRYWCLKEAILKATGVGIMKDLNSLDFRVNLQDRYRPGAFVTSTTVLEDGRLQDQWIFEETFVDAKHSAAVCKEKKLPRECVFRQDPEAKIFFSKITFESLLENAEITNPMPNNAADIFEEFMAKPKKTF | not soluble
4 | MSLIKLVAIDLDGTLLNSQKEISLRNKQALMAAKQAGVKVVICTGRPLAAIGPYLEELGLQDEGDYSITFNGGLVQKNDTGAIIEKTLMPLEAIHELYQLATTLNMPFDVLSDEVVMQLPSAPNYPSIYSSLNKLLTFESYKLEELTPNRIYNKVVVAIDEAYLNERIKEIPASFYERFEIIKTRNNLLEFMPKGITKAYGISLLAKDLGIRAEEIMTLGDEENDLPMIEYAGLGVAMANAIPLVKEAADVVTDTNDQDGVAKAVEKYILTPLEGGEGHHHHHH | soluble
5 | MYNNEPGAQSDPTLGYTFQNDFLALSQAFSLPEIDYTDISQREQLAAAIKRWPLLAEFAQPHSLRKP | not soluble
6 | MDLHADSLDGTRSGPGLPTSDTKASFEAHVREKFNRMVEAVDRTVEKRIDKLTKELAQKTAELLEVRAAFVQLTQKKQEVQRRERALNRQVDVAVEMIAVLRQRLTESEEELLRKEEEVVTFNHFLEAAAEKEVQGKARLQDFIENLLQRVELAEKQLEYYQSQQASGFVRDLSGHVLTDISSNRKPKCLSRGHPHSVCNHPDLKSHFHPKGRNHLKKAKDDRASMQPAKAIHEQAESSRDLCRPPKKGELLGFGRKGNIRPKMAKKKPTAIVNII | not soluble
7 | MVMNAILKKTHFSTAEYLADLAVQALIDEVNLTPKPALVDRRGGGAHDDLNLELMEKSAYSLFPMFKAMAEAAEIHGEVNQALREDIGQLGRQGEQRMLQVTHGINTHRGAIWSIGLVLTATALTLYKQEPCLITEICKTAAEIALLEDRFIPKQQFSHGQMVRQKFGINGAKQQAQQGFPIILEFGLVQLQCSRALNTTETEARLNALLAMMAELSDTCVVHRAGLDGLNMMQSGAREVLQLGGCSTNEGQQRLEQLEQNLLRIRASAGGAADLLATLLFLDQAEQHNSSAPQGRRNQWKY | not soluble
8 | MAHHHHHHMSVVRVSITHSSSGIRVPEKRYELSQTIASIKSNIFTHFATPPEQMQLQLIDDRGVKVESSMADDKQLGYYQCRDDFVIHVVDLRPTQQIANFEDVSQVQKYEITEEAYSKREDNARAFRQLMMARQREEAEKAGNPLPKELDADSYKETAEKIHVDDRCQCQPGDRLGTVRFVGRVASLKPGYWIGVEFDEPVGKGDGSVKGTRVFECQPKYGGFLRPDQVTVGDFPPEEF | not soluble
9 | MSSSESPAGIAQIGVTGLAVMGSNIARNFARHGYTVAVHNRSVAKTDALLKEHSSDGKFVRSETIPEFLAALEKPRRVLIMVKAGEATDADAVINELADAMEPGDIIIDGGNALYTDTMRREKAMRERGLHFVGAGISGGEEGALNGPSIMPGGPAESYQSLGPLLEEISAHVDGVPCCTHIGPDGSGHFVKMVHNGIEYSDMQLIGEAYQLMRDGLGLTAPAIADVFTEWNNGDLDSYLVEITAEVLRQTDAKTGKPLVDVIVDRAEQKGTGRWTVKSALDLGVPVTGIAEAVFARALSGSVGQRSAASGLASGKLGEQPADPATFTEDVRQALYASKIVAYAQGFNQIQAGSAEFGWDITPGDLATIWRGGCIIRAKFLNHIKEAFDASPNLASLIVAPYFRGAVESAIDSWRRVVSTAAQLGIPTPGFSSALSYYDALRTARLPAALTQAQRDFFGAHTYGRIDEPGKFHTLWSSDRTEVPV | soluble
10 | MFKKEKGGWFYMAGLKVEWNDWCPGCGNFGILSAEQQAIQELGLDPKKVVLVSGIGCSGKIPHFIRLPASGVHTLHGRALTFAIGIKLANPSLEVIVNGGDGDQLGIGVGHFVSAGRRNVDLTVIVHNNGVYGLTKGQASPTLKLGVKTKSLPKPNINSDINPIALAISSGYTFVARGYAYDVKHLKEIIKKAIKHKGLAMIDVLQPCPTYNDIHTKEYYDKRVYKLDEDPSWDPIVKKPEEMDDKMSKAILKSMEWGDRIPIGIFYQNELVSTYEQRIAERSPSYLDNPPAHDVIEFEGKPTTDVEDILKERRVT | not soluble
11 | MNAKEILVHSLRLLENGDARGWCDLFHPEGVLEFPYAPPGWKTRFEGRETIWAHMRLFPEHLTVRFTDVQFYETADPDLAIGEFHGDGVATVSGGKLAQDYISVLRTRDGQILLYRDFWNPLRHLEALGGVEAAAKIVQGA | soluble
12 | MSILVYDREHNFKKWYIYWIPKTKMLGVKDDKDVVYEKMCTLQERTDILKVSKSLVEEKWSSLFSESGLHIEEVCEKELVLTFALQRNITLERTELSGRFDECLYLEYLRLKTLTNVSPMKRKRTASTVEHVIRSDDIKPILAPKSDPVKKRTTRMAAKASGPEFDDE | not soluble
13 | MDYQTFEKVNKFINVKAYIFFLTQELKQQYKLSLKELLILAYFYYKNEHSISLKEIIGDILYKQSDVVKNIKSLSKKGFINKSRNEADERRIFVSVTPIQRKKIACVINELDKIIKGFNKERDYIKYQWAPKYSKEFFILFMNIMYSKDFLKYRFNLTFLDLSILYVISSRKNEILNLKDLFESIRFMYPQIVRSVNRLNNKGMLIKERSLADERIVLIKINKIQYNTIKSIFTDTSKILKPRKFFF | not soluble
14 | MGFRLGIVGLPNVGKSTLFNALTKTMKAQAANYPFCTIEPNVGVVEVPDERLYKLAEIEKSQKITPTFIEFVDIAGLVKGASKGEGLGNQFLSHIREVDAVAMVLRAFEDENIVHVEGSVDPVRDKEIVEIELIAKDLESVNRRIEKVQKVAKGGDKKAREEMEHLNALKEILENLEPIRKYADKLPPETLEYAKKTLFLLTVKPVMYIANISEKDLPEGEGNPHVERIKEMANQENAPVVVISAELEAQLAGLSEEEQKEMLEAYGLKEPGLNKVIRTGYRLLDLITFFTAGEREARAWTVKRGTKAPQAAGKIHSDMERGFIAAEVISYEDLIKAGSWAKAKEQGLIRLEGKDYEIQDGDVVYFRFNV | soluble
15 | MGSDKIHHHHHHMDSNYTKAGYLTEPFKIFHLRDEHKLNIDFHYHDFHKILIHLHGNVSYCIEGRSYELKEHDIVLVNAGEVHKPILNDDSIYERIIIYVSQQLIDDYVSKGYDLACCFKQAYANQSHVLRLAATKGSRLADTIKGLDSTLRETNEYANELYQKLLFLEFLIQLNRITLHGGIEYINTFSSNKKIVEILDFLNKNLTNRISIDELADKFYMSRYHLMHTFKEETGCTIGSYITTKRLLLARDMIRDGSSVSAACDACGFGSYSSFIRAYRKQFHSTPTNT | not soluble
16 | MGSDKIHHHHHHMRGGNIKAIVYLPLDPEKAKQNNLPVKLPVLAEDLPKVLEEDRIPLDVILRGLEAQYEITKDEYYRSYYVFFLYEKFKQLLREGKLDEAEKILEKAKEVQYDYRYHFYRGLLLKHRGELGEAEIEMRLAISMNDRFAPAYFELAGILKEKNEIEDSLLFYEKAYEVNKEFLLPLLKKGDLLLEEGRLEEAIEEYRRILEKDSNFVEVYERLGVIYNQLQRFKEAEKFFKKALEIERKDHVEYNLSYTLIKLGKLFEALEILKRLYEKNPDDPMVANEYGLLLKTLGLYEEALEVFEDAYRRHKEEEILKYNYGTILLHFEKEKAVSILSEISGELKDRAEFMISLAEKDVVIPSYEEFEWLKDYFFEGTIDVVALSEEIDSEDEDAKRRIERLREGEFPFYDTTLDSSEMLEVILGIMFESPDIFKMEENAVKFVSAFYGSSVMIASTIVLTRTFQYFLAEEEPTMEELLRELVAETQDVNWKFSLRLARFRHADRFDFNRLSDLVIAFLQSIEQGTPVSDDERLKYLLEKLTFQKEG | not soluble
17 | MAALTKVKLCQLDDLMPFIGATVLIEGERVALFYIPDSGVYAVQDWDPIGKAYVMSRGIVGDINGEMCVASPLYKQHFSLKSGQCLEDEAHCLKTWRVTVDDNQVCYLAKELEHHHHHH | soluble
18 | MKNLAIFDLDNTLINTDSDHAWPQYLIKKGLVDAAETEAQNEKFYRDYQNGCLDIDAFLKLHLAPLARYSKEELAEFHREFMAEYIIPHISPMQRMLVQSHQMAGDETLVISSTNEFIITPVCRLFGIANMIGTQLETGPDGRYTGNYIGTPSLKEGKITRLNQWLAERGETLESYGKTYFYSDSKNDLPLLRLVSEPVAVNPDAELEKEAKEKGWPVLNFK | not soluble
19 | MMKNMARKNQKAPWEEEEEIIWVSRTELKNDMLALQKLGEELVELKPSALAKFPLPEDLAEAIKDAQRFKNEARRRQLQYIGKLMRHIDPEPLQAALDKLRNKHSQTTALLHKLEQLRDRIVAEGDSAIEVAMEQYPEADRQRLRLLARQASKEKAGNKPPKSSREIFQLLKEAMLAKQEIEEESEDDLDSAE | not soluble
20 | MNGKRPAEPGPARVGKKGKKEVMAEFSDAVTEETLKKQVAEAWSRRTPFSHEVIVMDMDPFLHCVIPNFIQSQDFLEGLQKELMNLDFHEKYNDLYKFQQSDDLKKRREPHISTLRKILFEDFRSWLSDISKIDLESTIDMSCAKYEFTDALLCHDDELEGRRIAFILYLVPPWDRSMGGTLDLYSIDEHFQPKQIVKSLIPSWNKLVFFEVSPVSFHQVSEVLSEEKSRLSISGWFHGPSLTRPPNYFEPPIPRSPHIPQDHEILYDWINPTYLDMDYQVQIQEEFEESSEILLKEFLKPEKFTKVCEALEHGHVEWSSRGPPNKRFYEKAEESKLPEILKECMKLFRSEALFLLLSNFTGLKLHFLAPSEEDEMNDKKEAETTDITEEGTSHSPPEPENNQMAISNNSQQSNEQTDPEPEENETKKESSVPMCQGELRHWKTGHYTLIHDHSKAEFALDLILYCGCEGWEPEYGGFTSYIAKGEDEELLTVNPESNSLALVYRDRETLKFVKHINHRSLEQKKTFPNRTGFWDFSFIYYE | not soluble
21 | MVTDHGYKCRITNIVPLSEHEKLFQLRIVDPRERELFTFRPGQFLMLEVPGYGEAPISISSATSNREFIELCIRKAGHVTSALFEAKQGAFVAVRGPFGTSFPMEAMQDHDVLLIAGGLGIAPLRAPLFWINDHRDHYRNVSFLYGAKEPSQMLFTYQFEEWKTVSHIDLHTIVEKPDDQWTGRTGMITLLFDEITIDPKNTWAIVCGPPVMFKFVCTHLDKLGIPMNRMFVSLERHMNCGMGKCCRCMVGSTFTCLDGPVFDYWSVMNLKEAI | not soluble
22 | MGSDKIHHHHHHMPTRSTPTERQKRLGAELRKMRLAAGAPTEYAAGLLGIDRTRLSNMESGIRPFSPDRVRTLACNYSCTDDGYIEALVAMTSTKERGWWERHRGILPSGLLDIAELEWHATRVRTAQVMHAPGLLQTEDYARGVFTAVLPPLTRLEVELRVAHRMERQQVLERPSPLPYIAYVHEAVLRMPYGGTEATQQQLKHLCSQSERENIEVRVIPTSTGGFPGAGHALLYADGAVPQLDTVQLDSAHGPEFTHADAQLTKYRSHLNWMDGAAMTSAASRDLIRKIARDL | not soluble
